Measured values reported in publication PMC9346500 (EMBO Reports, 2022).
Where a chain is given by its changes, count along the chain named. Names and notes keep the numbering of the source.

Key:
[1] = target: HOTag6-G10-Ub (designed tetrameric ubiquitin construct); assay: NMR titration
[2] = target: T1, M1-linked tetraubiquitin (M1-Ub4) (UniProt P0CG48 1-76; P0CG48 1-76; P0CG48 1-76; P0CG48 1-76); assay: NMR titration
[3] = target: HOTag6-G10-Ub (designed tetrameric ubiquitin construct); assay: fluorescence polarisation
[4] = target: ubiquitin (Ub) (UniProt P0CG48 1-76); assay: fluorescence polarisation
[5] = target: T1, M1-linked tetraubiquitin (M1-Ub4); assay: fluorescence polarisation

T1 sequence (P0CG48 1-304, one chain of several): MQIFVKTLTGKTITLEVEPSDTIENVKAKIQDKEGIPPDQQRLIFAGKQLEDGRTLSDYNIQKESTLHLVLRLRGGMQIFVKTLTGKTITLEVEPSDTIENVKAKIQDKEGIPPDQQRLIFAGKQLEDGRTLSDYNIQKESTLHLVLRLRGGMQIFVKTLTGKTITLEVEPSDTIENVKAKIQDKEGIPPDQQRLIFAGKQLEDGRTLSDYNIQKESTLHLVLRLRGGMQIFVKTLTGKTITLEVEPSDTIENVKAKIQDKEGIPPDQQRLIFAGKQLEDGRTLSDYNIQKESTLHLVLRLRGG

B1: UBQLN2 450–624 (domain or fragment, UniProt Q9UHD9 450-624, looked up)
chain: RAMQALMQIQQGLQTLATEAPGLIPSFTPGVGVGVLGTAIGPVGPVTPIGPIGPIVPFTPIGPIGPIGPTGPAAPPGSTGSGGPTGPTVSSAAPSETTSPTSESGPNQQFIQQMVQALAGANAPQLPNPEVRFQQQLEQLNAMGFLNREANLQALIATGGDINAAIERLLGSQPS
- Kd [1]: 8.8 µM
- Kd [2]: 12.8 µM

B2: fluorescently-labeled UBQLN2 450–624 (S624C, Alexa Fluor 488) (domain or fragment, UniProt Q9UHD9 450-624, looked up)
chain: B1 chain with S175C
modifications: Alexa Fluor 488 C5 Maleimide on the cysteine of S624C
- Kd [3]: 7 µM
- Kd [4]: 3.4 µM
- Kd [5]: 5.1 µM
